# Measurements taken from publication PMC4804749.
# Biological target: His111 (UniProt position 111, …)
# Experiment: NMR
# Settings: 288 K
protein,measurement,setting,value
KTNMKHMAGA [Prion protein fragment PrP(106-115) (Homo sapiens)],pKa,,∼5
same,pKa,"Free peptide, no copper, 0.3 mM peptide",6.2
